Assays:
[1] = test system: T1, Peptide #15 (Biotin-aAbu-Pro-Gln-Gly-Leu-Lys(5FAM)-Ala-Lys-NH2)
T1 sequence: PQGLKAK

[2] = test system: TNO211 peptide (DABCYL-GABA-Pro-Gln-Gly-Leu-Glu(EDANS)-Ala-Lys-NH2)
[3] = test system: Anaspec, Inc.'s FRET peptide XV (QXL520-y-Abu-Pro-Gln-Gly-Leu-Dab(5-FAM)-Ala-Lys-NH)

Sequence of MMP-9 (chain, as listed by the source): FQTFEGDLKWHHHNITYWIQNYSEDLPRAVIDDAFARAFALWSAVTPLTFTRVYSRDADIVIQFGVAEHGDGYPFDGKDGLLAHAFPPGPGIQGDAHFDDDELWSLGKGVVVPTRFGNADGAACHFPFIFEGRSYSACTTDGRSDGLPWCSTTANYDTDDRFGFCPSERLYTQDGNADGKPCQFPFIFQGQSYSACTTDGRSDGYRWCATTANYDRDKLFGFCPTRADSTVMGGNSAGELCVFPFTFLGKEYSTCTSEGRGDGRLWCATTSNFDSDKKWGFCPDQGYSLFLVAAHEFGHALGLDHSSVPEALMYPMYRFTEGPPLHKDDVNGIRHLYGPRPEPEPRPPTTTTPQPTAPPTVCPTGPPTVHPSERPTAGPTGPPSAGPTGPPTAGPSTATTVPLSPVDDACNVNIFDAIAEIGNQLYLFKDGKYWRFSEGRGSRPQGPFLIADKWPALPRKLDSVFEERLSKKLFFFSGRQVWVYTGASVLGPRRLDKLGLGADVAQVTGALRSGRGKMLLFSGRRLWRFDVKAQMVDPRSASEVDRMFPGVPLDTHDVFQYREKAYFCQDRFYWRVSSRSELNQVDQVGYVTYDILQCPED
Sequence of Recombinant active pure MMP-9 from Calbiochem (Cat# PF024; 83 kDa form) (chain, as listed by the source): as above

pronase
fluorescence left after streptavidin agarose removal of uncleaved biotinylated peptide [1]: there was enough of a difference between the negative control and the other samples to stop at this point
cleavage of the dye-labelled immobilized substrate (color generation) (RH substrate): none of the enzyme preparations were successful in cleaving the RH substrate
visible color from cleavage of the dye-labelled immobilized substrate (Substrate AA): AA substrate reacted with pronase and proteinase K did produce a visible color within 2.5 h at 37 °C Pronase generated the most noticeable color change
time to completion of the cleavage reaction at 1 ug/ml protease [2]: the pronase reaction reached completion within 13 minutes
visual detection limit of protease by fluorescence of cleaved substrate [2]: 125 ng pronase was detected within 10 minutes

dispase
cleavage of the dye-labelled immobilized substrate (color generation) (RH substrate): none of the enzyme preparations were successful in cleaving the RH substrate

trypsin
cleavage of the dye-labelled immobilized substrate (color generation) (RH substrate): none of the enzyme preparations were successful in cleaving the RH substrate

clostridial collagenase
protease activity (fluorescence from cleavage of substrate TNO211), relative to pronase [2]: 2±1%

MMP-9
protease activity (fluorescence from cleavage of substrate TNO211), relative to pronase [2]: 28±3%
substrate specificity in the fluorogenic cleavage assay [2]: The substrate exhibited greater specificity for MMP-9 within the initial 30 minutes of the assay

elastase
cleavage of the dye-labelled immobilized substrate (color generation) (RH substrate): none of the enzyme preparations were successful in cleaving the RH substrate

Recombinant active pure MMP-9 from Calbiochem (Cat# PF024; 83 kDa form)
time to a visible fluorescent signal from cleavage of the FRET peptide [3]: capable of generating a signal within 10 minutes for pure MMP-9 activity
visually detectable fluorescent signal in MMP-9 spiked fetal bovine serum [3]: the spiked FBS generated as slightly detectable signal by 10 min with the 5-FAM-based peptide and an easily detectable signal by 30 min

From patent US20080176263
